Article PMC4457860, “In Vitro Interaction of the Housekeeping SecA1 with the Accessory SecA2 Protein of Mycobacterium tuberculosis” (PLoS ONE, 2015)
Changes are numbered by the printed parent chain. In names and notes the source's numbering stands.

Assays:
[1] = biological target: Mycobacterium tuberculosis SecA1(S945C) labeled with Cy5 (Mycobacterium tuberculosis strain H37Rv) (UniProt P9WGP5); assay: MST; as the low salt experiment, but at moderate salt concentration (150 mM KCl); dimer to monomers
[2] = biological target: Mycobacterium tuberculosis SecA1(S945C) labeled with Cy5 (Mycobacterium tuberculosis strain H37Rv) (UniProt P9WGP5); assay: MST; Monolith NT.115; unlabeled protein (1 nM to 5 μM) titrated into 25 nM Cy5-labeled protein, mixed in 300 mM KCl, then diluted into low salt buffer (25 mM HEPES-KOH pH 7.5, 30 mM KCl, 2 mM MgCl2, 50 mM arginine); Hill fit, apparent Kd; dimer to monomers
[3] = biological target: Mycobacterium tuberculosis SecA2(S802C) labeled with Cy5 (Mycobacterium tuberculosis strain H37Rv) (UniProt P9WGP3); assay: as above
[4] = biological target: Mycobacterium tuberculosis SecA1(S945C) labeled with Cy5, P9WGP5; assay: fluorescence cross-correlation spectroscopy (FCCS); SecA1-Cy5 and SecA2-AF488 mixed 1:1 in 300 mM KCl, exchanged on NAP5 into 25 mM HEPES-KOH pH 7.5, 30 mM KCl, 2 mM MgCl2, 50 mM arginine; 10 min at room temperature; LSM710 confocal microscope; details: other: fluorescence cross-correlation spectroscopy (FCCS)
[5] = biological target: T1, Mycobacterium tuberculosis SecA2(S802C) labeled with Cy5 (Mycobacterium tuberculosis strain H37Rv, UniProt P9WGP3 31-808, S802C, Cy5 (Cy5-maleimide label)); assay: MST; as the low salt experiment, but at moderate salt concentration (150 mM KCl); dimer to monomers; details: both partners purified
T1 construct: also called SecA2-Cy5; PIP154
T1 sequence: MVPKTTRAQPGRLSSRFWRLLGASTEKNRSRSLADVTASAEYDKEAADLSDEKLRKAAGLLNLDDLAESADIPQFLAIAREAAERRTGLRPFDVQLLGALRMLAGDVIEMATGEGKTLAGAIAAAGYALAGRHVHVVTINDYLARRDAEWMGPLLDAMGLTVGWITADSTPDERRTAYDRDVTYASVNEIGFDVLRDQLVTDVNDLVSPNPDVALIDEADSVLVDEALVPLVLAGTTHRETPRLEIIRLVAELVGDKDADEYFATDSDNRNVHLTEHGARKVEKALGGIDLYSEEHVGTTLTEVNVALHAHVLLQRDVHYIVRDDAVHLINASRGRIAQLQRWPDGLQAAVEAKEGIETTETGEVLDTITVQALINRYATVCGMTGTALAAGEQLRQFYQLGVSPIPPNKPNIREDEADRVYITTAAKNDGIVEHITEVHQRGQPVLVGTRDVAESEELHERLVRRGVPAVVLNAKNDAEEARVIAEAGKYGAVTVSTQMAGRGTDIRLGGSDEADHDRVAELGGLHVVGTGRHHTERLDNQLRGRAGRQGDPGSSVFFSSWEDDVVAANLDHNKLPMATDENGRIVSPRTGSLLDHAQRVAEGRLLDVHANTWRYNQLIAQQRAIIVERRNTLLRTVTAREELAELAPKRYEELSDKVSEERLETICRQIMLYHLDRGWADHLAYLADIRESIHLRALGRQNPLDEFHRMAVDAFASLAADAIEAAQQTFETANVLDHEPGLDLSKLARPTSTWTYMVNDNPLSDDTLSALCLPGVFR

[6] = biological target: Mycobacterium tuberculosis SecA1(S945C) labeled with Cy5 (Mycobacterium tuberculosis strain H37Rv) (UniProt P9WGP5); assay: MST; Monolith NT.115; unlabeled protein (1 nM to 5 μM) titrated into 25 nM Cy5-labeled protein, mixed in 300 mM KCl, then diluted into low salt buffer (25 mM HEPES-KOH pH 7.5, 30 mM KCl, 2 mM MgCl2, 50 mM arginine); Hill fit, apparent Kd; dimer to monomers; remark: listed apart in the source
[7] = biological target: T1, Mycobacterium tuberculosis SecA2(S802C) …; assay: as above; details: both partners purified

Work on “Mycobacterium tuberculosis SecA1 (unlabeled) (from UniProt P9WGP5 1-949) (natural protein)” yielded a Kd [1] of 298 nM, a Kd [2] of 65 nM and a Kd [3] of 438 nM.

B1: Mycobacterium tuberculosis SecA2(S802C) labeled with AlexaFluor 488 (protein)
chain: T1 sequence
B1 was tested, and the “percent of all proteins co-migrating as heterodimers” value [4] was 12% of all proteins co-migrated as heterodimers.

B2: Mycobacterium tuberculosis SecA2 (unlabeled) (natural protein)
chain: T1 sequence with C773S
notes: No tag; molecular mass 85 kDa on SDS-PAGE; also called PIP152
In the case of B2, the Kd [5] is reported as 618 ± 36.5 nM, the Kd [6] is reported as 378 nM and the Kd [7] is reported as 161 ± 6.2 nM.
